Data on one molecule can be found in US20220396627A1.

The target of test [1] is Human Siglec-9-Fc (recombinant human Siglec-9 extracellular domain Q18-G348 fused to human IgG1 Fc) (human). Briefly: BLI binning, hSiglec-9-Fc on AHC sensor; competitor bound first (row): 2F15.
The target is the same in test [2]. Briefly: BLI binning, hSiglec-9-Fc on AHC sensor; competitor bound first (row): 9C15.
The target is the same in test [3]. Briefly: BLI binning, hSiglec-9-Fc on AHC sensor; competitor bound first (row): 9D21.
Test [4] shares this target. Briefly: BLI binning, hSiglec-9-Fc on AHC sensor; competitor bound first (row): 12G23.
For test [5] the target is unchanged. Briefly: BLI binning, hSiglec-9-Fc on AHC sensor; competitor bound first (row): 12L19.
Test [6] has the same target. Briefly: BLI binning, hSiglec-9-Fc on AHC sensor; competitor bound first (row): 12P18.
For test [7] the target is unchanged. Briefly: BLI binning, hSiglec-9-Fc on AHC sensor; competitor bound first (row): 13J19.
Test [8] has the same target. Briefly: BLI binning, hSiglec-9-Fc on AHC sensor; competitor bound first (row): 13O18.
For test [9] the target is unchanged. Briefly: BLI binning, hSiglec-9-Fc on AHC sensor; competitor bound first (row): 3L02 (self).
The target is the same in test [10]. Briefly: BLI binning, hSiglec-9-Fc on AHC sensor; competitor bound first (row): 13H10 (printed 13H110).

Chain of Human Siglec-9-Fc (recombinant human Siglec-9 extracellular domain Q18-G348 fused to human IgG1 Fc) (human) (chain, as listed by the source limits assumed): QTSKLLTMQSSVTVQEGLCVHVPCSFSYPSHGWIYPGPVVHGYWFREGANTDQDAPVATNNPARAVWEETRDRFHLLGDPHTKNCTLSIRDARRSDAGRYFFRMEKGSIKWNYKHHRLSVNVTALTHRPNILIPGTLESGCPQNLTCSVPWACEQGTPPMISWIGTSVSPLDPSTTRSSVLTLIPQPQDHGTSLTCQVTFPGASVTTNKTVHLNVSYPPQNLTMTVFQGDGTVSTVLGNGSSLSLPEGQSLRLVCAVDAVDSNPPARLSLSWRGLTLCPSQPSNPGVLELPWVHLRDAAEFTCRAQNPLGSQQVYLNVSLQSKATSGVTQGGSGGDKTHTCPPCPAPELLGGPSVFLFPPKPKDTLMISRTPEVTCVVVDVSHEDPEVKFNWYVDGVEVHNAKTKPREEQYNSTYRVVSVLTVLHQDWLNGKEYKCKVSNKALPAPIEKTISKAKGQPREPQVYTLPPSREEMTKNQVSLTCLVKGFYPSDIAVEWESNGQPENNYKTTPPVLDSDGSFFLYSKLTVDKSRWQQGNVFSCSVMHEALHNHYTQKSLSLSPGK

B1: 3L02 (antibody, V domains shown)
VH: DVQLQESGPGMVKPSQSLSLTCTVTGYSITSGYDWHWIRHFPGNKLEWMGYISYSAGTNYNPSLKSRISITHDTSKNHFFLKLNSVTTEDTATYYCAREGLTAYWYFDVWGTGTTVTVSS
VL: DIVMTQSQKFMSTSVGDRVSVTCKASQTVGTNVAWYQQKPGQSPKPLIYSASYRYSGVPDRFTGSGSGTDFTLTISNVQSEDLAEYFCQQYDSFPLTFGSGTKLEIK
For the molecule B1, the maximum binding nm shift in test [1] is 0.099 nm; in test [2], 0.14 nm; in test [3] it was 0.188 nm; in [4] it was 0.031 nm; in [5], -0.053 nm; in test [6] it was 0.214 nm. Moreover, the maximum binding nm shift was 0.085 nm in test [7], 0.091 nm in test [8], 0 nm in test [9] and -0.064 nm in test [10].
